Data from patent publication US12421510B2, “Peptide, a complex and a method for treating cancer” (TECHNION RESEARCH & DEVELOPMENT FOUNDATION LIMITED, priority 2018, dated 2025).
One block for each molecule: values may come before it.

Target: T1, p105 (Homo sapiens, UniProt P19838)
T1 sequence (P19838 1-968): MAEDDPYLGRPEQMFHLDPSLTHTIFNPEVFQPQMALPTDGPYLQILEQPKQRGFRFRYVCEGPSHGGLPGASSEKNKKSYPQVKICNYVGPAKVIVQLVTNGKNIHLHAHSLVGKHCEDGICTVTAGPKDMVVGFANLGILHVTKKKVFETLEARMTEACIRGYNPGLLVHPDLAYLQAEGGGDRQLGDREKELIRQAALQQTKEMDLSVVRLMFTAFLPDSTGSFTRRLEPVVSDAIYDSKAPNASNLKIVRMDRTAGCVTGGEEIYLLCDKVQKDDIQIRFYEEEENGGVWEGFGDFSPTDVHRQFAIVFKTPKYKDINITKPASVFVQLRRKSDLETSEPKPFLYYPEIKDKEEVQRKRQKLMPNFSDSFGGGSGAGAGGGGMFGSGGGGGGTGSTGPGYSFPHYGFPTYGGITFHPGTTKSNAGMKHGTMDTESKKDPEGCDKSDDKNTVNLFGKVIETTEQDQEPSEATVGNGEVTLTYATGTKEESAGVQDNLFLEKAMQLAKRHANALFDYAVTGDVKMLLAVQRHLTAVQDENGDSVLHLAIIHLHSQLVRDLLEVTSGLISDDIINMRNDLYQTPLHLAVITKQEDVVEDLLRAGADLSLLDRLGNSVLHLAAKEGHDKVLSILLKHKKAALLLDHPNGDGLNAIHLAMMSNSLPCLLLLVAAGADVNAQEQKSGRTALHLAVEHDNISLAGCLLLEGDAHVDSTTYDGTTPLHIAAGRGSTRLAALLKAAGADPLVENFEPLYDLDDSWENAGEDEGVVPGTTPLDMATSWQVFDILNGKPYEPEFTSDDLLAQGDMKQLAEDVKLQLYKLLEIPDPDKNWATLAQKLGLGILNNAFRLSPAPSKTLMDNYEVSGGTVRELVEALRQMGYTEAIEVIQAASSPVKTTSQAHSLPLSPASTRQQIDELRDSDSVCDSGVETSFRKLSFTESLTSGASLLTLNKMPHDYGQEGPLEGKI
Test: Co-immunoprecipitation (Co-IP) of KPC1 species with p105-HA from transfected HEK293T cells
Type: binding
Set-up: HA; expressed in transfected cells; host or cells: HEK293T
Conditions: anti-FLAG immunoprecipitation, anti-NF-κB1 western blot
Description: FIG. 1B is a western blot showing the following: HEK293T cells were transfected with cDNAs coding for p105-HA (lanes 1-6), along with the different KPC1 species as following: W.T KPC1 (lane 1), KPC1Δ969-1314 (lane 2), KPC1Δ1-438 & 1039-1314 (lane 3), KPC1Δ1-967 (lane 4) and KPC1Δ1-1042 (lane 5). Lane 6 was transfected with an empty vector. KPC1 species were immunoprecipitated using immobilized FLAG antibodies, resolved by SDS-page, and NF-κB1 and KPC1 proteins were visualized by anti-NF-κB1 (FIG. 1B (upper)) and anti-FLAG (FIG. 1B (bottom)) antibodies, respectively. 10% of the total cell lysate was analyzed for the expression of p105-HA.
FIG. 2B is a western blot. HEK293T cells were transfected with cDNAs coding for p105-HA (lanes 1-7), along with different KPC1 species as following: WT KPC1 (lane 1), KPC1Δ1-967 (lane 2), KPC1Δ967-1043 (lane 3), KPC1Δ1-973 (lane 4), KPC1Δ1-1017 (lane 5) and KPC1ΔCC domain (lane 6). Lane 7 represents cells that were transfected with empty vector. KPC1 species were immunoprecipitated using immobilized FLAG antibodies, resolved by SDS-page. NF-κB1 and KPC1 proteins were visualized with anti-NF-κB1 (FIG. 2B (i)) and anti-FLAG (FIG. 2B (ii)) antibodies, respectively. 10% of the total cell lysate was analyzed for the expression of p105-HA. FIGS. 3A and 3B: FIG. 3A is a schematic representation of KPC1 species used in the experiment shown in FIG. 3B that was directed to evaluating the region of KPC1 that is responsible for the interaction with p105.
FIG. 3B is a western blot. HEK293T cells were transfected with cDNAs coding for p105-HA (lanes 1-12), along with different KPC1 species as following: KPC1-FLAG (lane 1), WILVRLW-KPC1 Δ 1-1253 (SEQ ID NO: 8) (lane 2), ILVRLW-KPC1 Δ 1-1253 (SEQ ID NO: 10) (lane 3), LVRLW-KPC1 Δ 1-1253 (SEQ ID NO: 11) (lane 4), VRLW-KPC1 Δ 1-1253 (lane 5) (SEQ ID NO: 12), RLW-KPC1 Δ 1-1253 (lane 6) SEQ ID NO:13), KPC1 Δ 1-1253 (lane 7), WILVRL-KPC1 Δ 1-1253 (lane 8) (SEQ ID NO: 14), WILVR-KPC1 Δ 1-1253 (SEQ ID NO: 15) (lane 9), WILV-KPC1 Δ 1-1253 (SEQ ID NO: 16) (lane 10), WIL-KPC1 Δ 1-1253 (SEQ ID NO: 17 (lane 11). Lane 12 represents cells that were transfected with empty vector. KPC1 species were immunoprecipitated using immobilized FLAG antibodies, resolved by SDS-page. NF-κB1 and KPC1 proteins were visualized by anti-NF-κB1 (FIG. 3B, (i, ii) and anti-FLAG (FIG. 3B, (iii) antibodies, respectively. 10% of the total cell lysate was analyzed for the expression of p105-HA (FIG. 3B, (ii)).
HEK293T cells were transiently transfected with the various KPC1 species along with p105-HA using the j etPEI reagent. 48 hours after transfection, the cells were harvested and lysed with RIPA buffer [150 mM NaCl, 0.5% sodium deoxycholate, 50 mM Tris-HCl (pH 8.0), 0.1% SDS, and 1% NP-40, supplemented with freshly added protease inhibitors mixture]. KPC1 species proteins were immunoprecipitated with immobilized anti-FLAG, with subsequent washing of the beads five times with RIPA buffer. The immunoprecipitated proteins were resolved by SDS-PAGE (10%, FIGS. 1A, 1B, 2A and 2B, with a gel gradient, of 4-20%; FIGS. 3A and 3B), and blotted onto nitrocellulose (FIGS. 1A, 1B, 2A and 2B) or PVDF (FIGS. 3A and 3B) membranes. p105 and KPC1 species were visualized using anti-NF-κB1 or anti-FLAG antibodies, respectively.
Identification of the region of KPC1 that is responsible for the interaction with p105. In order to identify the region of KPC1 that is responsible for the interaction with p105, several truncated segments of the DNA sequence of the KPC1 protein were cloned. The truncated segments were inserted into the pCAGGS expression vector to analyze their interaction with p105 by co-immunoprecipitation (Co-IP) from cells. HEK 293T cells were transfected with cDNAs coding for p105-HA, along with different fragments of KPC1 (FIG. 1A). Species of KPC1 were immunoprecipitated using an immobilized anti-Flag antibody. […]

interaction with p105 (Co-IP): An interaction
B1: KPC1ΔCC: KPC1 species that lacks the amino acids 1041-1061 (coiled coil domain) (protein)
chain: MASKGAGMSFSRKSYRLTSDAEKSRVTGIVQEKLLNDYLNRIFSSSEHAPPAATSRKPLNFQNLPEHLDQLLQVDNEEEESQGQVEGRLGPSTVVLDHTGGFEGLLLVDDDLLGVIGHSNFGTIRSTTCVYKGKWLYEVLISSQGLMQIGWCTISCRFNQEEGVGDTHNSYAYDGNRVRKWNVTTTNYGKAWAAGDIVSCLIDLDDGTLSFCLNGVSLGTAFENLSRGLGMAYFPAISLSFKESVAFNFGSRPLRYPVAGYRPLQDPPSADLVRAQRLLGCFRAVLSVELDPVEGRLLDKESSKWRLRGQPTVLLTLAHIFHHFAPLLRKVYLVEAVLMSFLLGIVEKGTPTQAQSVVHQVLDLLWLFMEDYEVQDCLKQLMMSLLRLYRFSPIVPDLGLQIHYLRLTIAILRHEKSRKFLLSNVLFDVLRSVVFFYIKSPLRVEEAGLQELIPTTWWPHCSSREGKESTEMKEETAEERLRRRAYERGCQRLRKRIEVVEELQVQILKLLLDNKDDNGGEASRYIFLTKFRKFLQENASGRGNMPMLCPPEYMVCFLHRLISALRYYWDEYKASNPHASFSEEAYIPPQVFYNGKVDYFDLQRLGGLLSHLRKTLKDDLASKANIVIDPLELQSTAMDDLDEDEEPAPAMAQRPMQALAVGGPLPLPRPGWLSSPTLGRANRFLSTAAVSLMTPRRPLSTSEKVKVRTLSVEQRTREDIEGSHWNEGLLLGRPPEEPEQPLTENSLLEVLDGAVMMYNLSVHQQLGKMVGVSDDVNEYAMALRDTEDKLRRCPKRRKDILAELTKSQKVFSEKLDHLSRRLAWVHATVYSQEKMLDIYWLLRVCLRTIEHGDRTGSLFAFMPEFYLSVAINSYSALKNYFGPVHSMEELPGYEETLTRLAAILAKHFADARIVGTDIRDSLMQALASYVCYPHSLRAVERIPEEQRIAMVRNLLAPYEQRPWAQTNWILVRLWRGCGFGYRYTRLPHLLKTKLEDANLPSLQKPCPSTLLQQHMADLLQQGPDVAPSFLNSVLNQLNWAFVDSRQLKVCATCFDLSVSLLRVLEMTITLVPEIFLDWTRPTSEMLLRRLAQLLNQVLNRVTAERNLFDRVVTLRLPGLESVDHYPILVAVTGILVQLLVRGPASEREQATSVLLADPCFQLRSICYLLGQPEPPAPGTALPAPDRKRFSLQSYADYISADELAQVEQMLAHLTSASAQAAAASLPTSEEDLCPICYAHPISAVFQPCGHKSCKACINQHLMNNKDCFFCKTTIVSVEDWEKGANTSTTSSAA

interaction with p105 (Co-IP): An interaction was observed
B2: WILVRLW-KPC1Δ1-1253: KPC1 lacking amino acids 1-1253 with WILVRLW at its N-terminus, SEQ ID NO: 8 (protein)
chain: WILVRLWCPICYAHPISAVFQPCGHKSCKACINQHLMNNKDCFFCKTTIVSVEDWEKGANTSTTSSAA

The next lines start with the molecule.

B3: KPC1Δ1-973: KPC1 species that lacks the amino acids 1-973 (protein, UniProt Q5XPI4 974-1314, looked up, fragment)
chain: WRGCGFGYRYTRLPHLLKTKLEDANLPSLQKPCPSTLLQQHMADLLQQGPDVAPSFLNSVLNQLNWAFSEFIGMIQEIQQAAERLERNFVDSRQLKVCATCFDLSVSLLRVLEMTITLVPEIFLDWTRPTSEMLLRRLAQLLNQVLNRVTAERNLFDRVVTLRLPGLESVDHYPILVAVTGILVQLLVRGPASEREQATSVLLADPCFQLRSICYLLGQPEPPAPGTALPAPDRKRFSLQSYADYISADELAQVEQMLAHLTSASAQAAAASLPTSEEDLCPICYAHPISAVFQPCGHKSCKACINQHLMNNKDCFFCKTTIVSVEDWEKGANTSTTSSAA
interaction with p105 (Co-IP): the interaction between these two proteins was abrogated

B4: KPC1Δ1-967: KPC1 species that lacks amino acids 1-967, SEQ ID NO: 5 (protein)
chain: WILVRLWRGCGFGYRYTRLPHLLKTKLEDANLPSLQKPCPSTLLQQHMADLLQQGPDVAPSFLNSVLNQLNWAFSEFIGMIQEIQQAAERLERNFVDSRQLKVCATCFDLSVSLLRVLEMTITLVPEIFLDWTRPTSEMLLRRLAQLLNQVLNRVTAERNLFDRVVTLRLPGLESVDHYPILVAVTGILVQLLVRGPASEREQATSVLLADPCFQLRSICYLLGQPEPPAPGTALPAPDRKRFSLQSYADYISADELAQVEQMLAHLTSASAQAAAASLPTSEEDLCPICYAHPISAVFQPCGHKSCKACINQHLMNNKDCFFCKTTIVSVEDWEKGANTSTTSSAA
interaction with p105 (Co-IP): an interaction was observed

B5: KPC1Δ1-1017: KPC1 species that lacks the amino acids 1-1017 (protein, UniProt Q5XPI4 1018-1314, looked up, fragment)
chain: LLQQGPDVAPSFLNSVLNQLNWAFSEFIGMIQEIQQAAERLERNFVDSRQLKVCATCFDLSVSLLRVLEMTITLVPEIFLDWTRPTSEMLLRRLAQLLNQVLNRVTAERNLFDRVVTLRLPGLESVDHYPILVAVTGILVQLLVRGPASEREQATSVLLADPCFQLRSICYLLGQPEPPAPGTALPAPDRKRFSLQSYADYISADELAQVEQMLAHLTSASAQAAAASLPTSEEDLCPICYAHPISAVFQPCGHKSCKACINQHLMNNKDCFFCKTTIVSVEDWEKGANTSTTSSAA
interaction with p105 (Co-IP): did not interact with p105
